Reference: paper PMC11134550

How the values were obtained:
Assay in all cases: SPR; Biacore T200; integrin (approx. 1000 RU) or TGFβRII (approx. 400 RU) amine-coupled to CM5 chip; galectin-3 2-fold serial dilutions injected (19.5-5000 nM integrins, 156.3-20000 nM TGFβRII), 30 μl/min, 20 °C, contact 120 s; HBS-P+ pH 7.4 ±1 mM MnCl2; steady-state fit, one-site specific binding; minimum number of binding sites = maximum response/Rmax
[1] = molecular target: recombinant human integrin αvβ1 (glycosylated) (human) (UniProt P06756)
[2] = molecular target: recombinant human integrin αvβ6 (glycosylated) (human) (UniProt P06756)
[3] = molecular target: recombinant human integrin αvβ5 (glycosylated) (human) (UniProt P06756)

binding response relative to αvβ6 [1]: 2 fold
stoichiometry N (individual galectin-3 proteins) [1]: > 16
stoichiometry N (individual galectin-3 proteins) [2]: > 8
binding response relative to αvβ6 [3]: 2 fold
stoichiometry N (individual galectin-3 proteins) [3]: > 16
Substance: recombinant human galectin-3 (expressed and purified for SPR) (from UniProt P17931 1-250) (natural protein)
